Results: the supplement of paper PMC11908140

B1: library; numbered along this chain (parent)
chain: MRKPRAAVGSGHRKQAASQEGRQKHAKNNSQAKPSACDGLARQPEEVVLQASVSSYHLFRDVAEVTAFRGSLLSWYDQEKRDLPWRRRAEDEMDLDRRAYAVWVSEVMLQQTQVATVINYYTGWMQKWPTLQDLASASLEEVNQLWAGLGYYSRGRRLQEGARKVVEELGGHMPRTAETLQQLLPGVGRYTAGAIASIAFGQATGVVDGNVARVLCRVRAIGADPSSTLVSQQLWGLAQQLVDPARPGDFNQAAMELGATVCTPQRPLCSQCPVESLCRARQRVEQEQLLASGSLSGSPDVEECAPNTGQCHLCLPPSEPWDQTLGVVNFPRKASRKPPREESSATCVLEQPGALGAQILLVQRPNSGLLAGLWEFPSVTWEPSEQLQRKALLQELQRWAGPLPATHLRHLGEVVHTFSHIKLTYQVYGLALEGQTPVTTVPPGARWLTQEEFHTAAVSTAMKKVFRVYQGQQPGTCMGSKRSQVSSPCSRKKPRMGQQVLDNFFRSHISTDAHSLNSAAQ

Variants of: B1
Assay: 8OG:A repair function score (normalized; synonymous = 0, nonsense = -1) (normalized log-likelihood score); higher = more repair activity (WT-like)
Conditions: with 8OG:A DNA repair reporter (GFP) in HEK-293 MUTYH KO cells
Summary of the method: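 GFP+ (repair) and GFP− bins of viable mCherry+ cells were collected at 72 h from MUTYH knockout HEK-293 cells bearing lentiviral MUTYH cDNA NNN codon-scan libraries in 10 pg/ml doxycycline, co-transfected with an 8OG:A GFP repair reporter and mCherry. Tile amplicons were sequenced, and per-tile Rosace fitness scores were normalized to a repair function score anchored on synonymous and nonsense distributions. Synonymous medians were set to 0 and nonsense to -1, with variants under 300 counts per million at the start removed.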
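Further: cells sorted at 72 h after reporter transfection.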

Variant | 8OG:A repair function score
MRKPRAAVGSGHRKQAASQEGRQKHAKNNSQAKPSACDGLARQPEEVVLQASVSSYHLFRDVAEVTAFRGSLLSWYDQEKRDLPWRRRAEDEMDLDRRAYAVWVSEVMLQQTQVATVINYYTGWMQKWPTLQDLASASLEEVNQLWAGLGYYSRGRRLQEGARKVVEELGGHMPRTAETLQQLLPGVGRYTAGAIASIAFGQATGVVDGNVARVLCRVRAIGADPSSTLVSQQLWGLAQQLVDPARPGDFNQAAMELGATVCTPQRPLCSQCPVESLCRARQRVEQEQLLASGSLSGSPDVEECAPNTGQCHLCLPPSEPWDQTLGVVNFPRKASRKPPREESSATCVLEQPGALGAQILLVQRPNSGLLAGLWEFPSVTWEPSEQLQRKALLQELQRWWGPLPATHLRHLGEVVHTFSHIKLTYQVYGLALEGQTPVTTVPPGARWLTQEEFHTAAVSTAMKKVFRVYQGQQPGTCMGSKRSQVSSPCSRKKPRMGQQVLDNFFRSHISTDAHSLNSAAQ [A400W] | -0.139
MRKPRAAVGSGHRKQAASQEGRQKHAKNNSQAKPSACDGLARQPEEVVLQASVSSYHLFRDVAEVTAFRGSLLSWYDQEKRDLPWRRRAEDEMDLDRRAYAVWVSEVMLQQTQVATVINYYTGWMQKWPTLQDLASASLEEVNQLWAGLGYYSRGRRLQEGARKVVEELGGHMPRTAETLQQLLPGVGRYTAGAIASIAFGQATGVVDGNVARVLCRVRAIGADPSSTLVSQQLWGLAQQLVDPARPGDFNQAAMELGATVCTPQRPLCSQCPVESLCRARQRVEQEQLLASGSLSGSPDVEECAPNTGQCHLCLPPSEPWDQTLGVVNFPRKASRKPPREESSATCVLEQPGALGAQILLVQRPNSGLLAGLWEFPSVTWEPSEQLQRKALLQELQRWYGPLPATHLRHLGEVVHTFSHIKLTYQVYGLALEGQTPVTTVPPGARWLTQEEFHTAAVSTAMKKVFRVYQGQQPGTCMGSKRSQVSSPCSRKKPRMGQQVLDNFFRSHISTDAHSLNSAAQ [A400Y] | -0.116
MRKPRAAVGSGHRKQAASQEGRQKHAKNNSQAKPSACDGLARQPEEVVLQASVSSYHLFRDVAEVTAFRGSLLSWYDQEKRDLPWRRRAEDEMDLDRRAYAVWVSEVMLQQTQVATVINYYTGWMQKWPTLQDLASASLEEVNQLWAGLGYYSRGRRLQEGARKVVEELGGHMPRTAETLQQLLPGVGRYTAGAIASIAFGQATGVVDGNVARVLCRVRAIGADPSSTLVSQQLWGLAQQLVDPARPGDFNQAAMELGATVCTPQRPLCSQCPVESLCRARQRVEQEQLLASGSLSGSPDVEECAPNTGQCHLCLPPSEPWDQTLGVVNFPRKASRKPPREESSATCVLEQPGALGAQILLVQRPNSGLLAGLWEFPSVTWEPSEQLQRKALLQELQRWAFPLPATHLRHLGEVVHTFSHIKLTYQVYGLALEGQTPVTTVPPGARWLTQEEFHTAAVSTAMKKVFRVYQGQQPGTCMGSKRSQVSSPCSRKKPRMGQQVLDNFFRSHISTDAHSLNSAAQ [G401F] | -0.16
MRKPRAAVGSGHRKQAASQEGRQKHAKNNSQAKPSACDGLARQPEEVVLQASVSSYHLFRDVAEVTAFRGSLLSWYDQEKRDLPWRRRAEDEMDLDRRAYAVWVSEVMLQQTQVATVINYYTGWMQKWPTLQDLASASLEEVNQLWAGLGYYSRGRRLQEGARKVVEELGGHMPRTAETLQQLLPGVGRYTAGAIASIAFGQATGVVDGNVARVLCRVRAIGADPSSTLVSQQLWGLAQQLVDPARPGDFNQAAMELGATVCTPQRPLCSQCPVESLCRARQRVEQEQLLASGSLSGSPDVEECAPNTGQCHLCLPPSEPWDQTLGVVNFPRKASRKPPREESSATCVLEQPGALGAQILLVQRPNSGLLAGLWEFPSVTWEPSEQLQRKALLQELQRWAEPLPATHLRHLGEVVHTFSHIKLTYQVYGLALEGQTPVTTVPPGARWLTQEEFHTAAVSTAMKKVFRVYQGQQPGTCMGSKRSQVSSPCSRKKPRMGQQVLDNFFRSHISTDAHSLNSAAQ [G401E] | 0.191
MRKPRAAVGSGHRKQAASQEGRQKHAKNNSQAKPSACDGLARQPEEVVLQASVSSYHLFRDVAEVTAFRGSLLSWYDQEKRDLPWRRRAEDEMDLDRRAYAVWVSEVMLQQTQVATVINYYTGWMQKWPTLQDLASASLEEVNQLWAGLGYYSRGRRLQEGARKVVEELGGHMPRTAETLQQLLPGVGRYTAGAIASIAFGQATGVVDGNVARVLCRVRAIGADPSSTLVSQQLWGLAQQLVDPARPGDFNQAAMELGATVCTPQRPLCSQCPVESLCRARQRVEQEQLLASGSLSGSPDVEECAPNTGQCHLCLPPSEPWDQTLGVVNFPRKASRKPPREESSATCVLEQPGALGAQILLVQRPNSGLLAGLWEFPSVTWEPSEQLQRKALLQELQRWALPLPATHLRHLGEVVHTFSHIKLTYQVYGLALEGQTPVTTVPPGARWLTQEEFHTAAVSTAMKKVFRVYQGQQPGTCMGSKRSQVSSPCSRKKPRMGQQVLDNFFRSHISTDAHSLNSAAQ [G401L] | -0.214
MRKPRAAVGSGHRKQAASQEGRQKHAKNNSQAKPSACDGLARQPEEVVLQASVSSYHLFRDVAEVTAFRGSLLSWYDQEKRDLPWRRRAEDEMDLDRRAYAVWVSEVMLQQTQVATVINYYTGWMQKWPTLQDLASASLEEVNQLWAGLGYYSRGRRLQEGARKVVEELGGHMPRTAETLQQLLPGVGRYTAGAIASIAFGQATGVVDGNVARVLCRVRAIGADPSSTLVSQQLWGLAQQLVDPARPGDFNQAAMELGATVCTPQRPLCSQCPVESLCRARQRVEQEQLLASGSLSGSPDVEECAPNTGQCHLCLPPSEPWDQTLGVVNFPRKASRKPPREESSATCVLEQPGALGAQILLVQRPNSGLLAGLWEFPSVTWEPSEQLQRKALLQELQRWAAPLPATHLRHLGEVVHTFSHIKLTYQVYGLALEGQTPVTTVPPGARWLTQEEFHTAAVSTAMKKVFRVYQGQQPGTCMGSKRSQVSSPCSRKKPRMGQQVLDNFFRSHISTDAHSLNSAAQ [G401A] | -0.317
MRKPRAAVGSGHRKQAASQEGRQKHAKNNSQAKPSACDGLARQPEEVVLQASVSSYHLFRDVAEVTAFRGSLLSWYDQEKRDLPWRRRAEDEMDLDRRAYAVWVSEVMLQQTQVATVINYYTGWMQKWPTLQDLASASLEEVNQLWAGLGYYSRGRRLQEGARKVVEELGGHMPRTAETLQQLLPGVGRYTAGAIASIAFGQATGVVDGNVARVLCRVRAIGADPSSTLVSQQLWGLAQQLVDPARPGDFNQAAMELGATVCTPQRPLCSQCPVESLCRARQRVEQEQLLASGSLSGSPDVEECAPNTGQCHLCLPPSEPWDQTLGVVNFPRKASRKPPREESSATCVLEQPGALGAQILLVQRPNSGLLAGLWEFPSVTWEPSEQLQRKALLQELQRWAIPLPATHLRHLGEVVHTFSHIKLTYQVYGLALEGQTPVTTVPPGARWLTQEEFHTAAVSTAMKKVFRVYQGQQPGTCMGSKRSQVSSPCSRKKPRMGQQVLDNFFRSHISTDAHSLNSAAQ [G401I] | -0.184
MRKPRAAVGSGHRKQAASQEGRQKHAKNNSQAKPSACDGLARQPEEVVLQASVSSYHLFRDVAEVTAFRGSLLSWYDQEKRDLPWRRRAEDEMDLDRRAYAVWVSEVMLQQTQVATVINYYTGWMQKWPTLQDLASASLEEVNQLWAGLGYYSRGRRLQEGARKVVEELGGHMPRTAETLQQLLPGVGRYTAGAIASIAFGQATGVVDGNVARVLCRVRAIGADPSSTLVSQQLWGLAQQLVDPARPGDFNQAAMELGATVCTPQRPLCSQCPVESLCRARQRVEQEQLLASGSLSGSPDVEECAPNTGQCHLCLPPSEPWDQTLGVVNFPRKASRKPPREESSATCVLEQPGALGAQILLVQRPNSGLLAGLWEFPSVTWEPSEQLQRKALLQELQRWAHPLPATHLRHLGEVVHTFSHIKLTYQVYGLALEGQTPVTTVPPGARWLTQEEFHTAAVSTAMKKVFRVYQGQQPGTCMGSKRSQVSSPCSRKKPRMGQQVLDNFFRSHISTDAHSLNSAAQ [G401H] | -0.241
MRKPRAAVGSGHRKQAASQEGRQKHAKNNSQAKPSACDGLARQPEEVVLQASVSSYHLFRDVAEVTAFRGSLLSWYDQEKRDLPWRRRAEDEMDLDRRAYAVWVSEVMLQQTQVATVINYYTGWMQKWPTLQDLASASLEEVNQLWAGLGYYSRGRRLQEGARKVVEELGGHMPRTAETLQQLLPGVGRYTAGAIASIAFGQATGVVDGNVARVLCRVRAIGADPSSTLVSQQLWGLAQQLVDPARPGDFNQAAMELGATVCTPQRPLCSQCPVESLCRARQRVEQEQLLASGSLSGSPDVEECAPNTGQCHLCLPPSEPWDQTLGVVNFPRKASRKPPREESSATCVLEQPGALGAQILLVQRPNSGLLAGLWEFPSVTWEPSEQLQRKALLQELQRWADPLPATHLRHLGEVVHTFSHIKLTYQVYGLALEGQTPVTTVPPGARWLTQEEFHTAAVSTAMKKVFRVYQGQQPGTCMGSKRSQVSSPCSRKKPRMGQQVLDNFFRSHISTDAHSLNSAAQ [G401D] | 0.0297
MRKPRAAVGSGHRKQAASQEGRQKHAKNNSQAKPSACDGLARQPEEVVLQASVSSYHLFRDVAEVTAFRGSLLSWYDQEKRDLPWRRRAEDEMDLDRRAYAVWVSEVMLQQTQVATVINYYTGWMQKWPTLQDLASASLEEVNQLWAGLGYYSRGRRLQEGARKVVEELGGHMPRTAETLQQLLPGVGRYTAGAIASIAFGQATGVVDGNVARVLCRVRAIGADPSSTLVSQQLWGLAQQLVDPARPGDFNQAAMELGATVCTPQRPLCSQCPVESLCRARQRVEQEQLLASGSLSGSPDVEECAPNTGQCHLCLPPSEPWDQTLGVVNFPRKASRKPPREESSATCVLEQPGALGAQILLVQRPNSGLLAGLWEFPSVTWEPSEQLQRKALLQELQRWACPLPATHLRHLGEVVHTFSHIKLTYQVYGLALEGQTPVTTVPPGARWLTQEEFHTAAVSTAMKKVFRVYQGQQPGTCMGSKRSQVSSPCSRKKPRMGQQVLDNFFRSHISTDAHSLNSAAQ [G401C] | -0.381
MRKPRAAVGSGHRKQAASQEGRQKHAKNNSQAKPSACDGLARQPEEVVLQASVSSYHLFRDVAEVTAFRGSLLSWYDQEKRDLPWRRRAEDEMDLDRRAYAVWVSEVMLQQTQVATVINYYTGWMQKWPTLQDLASASLEEVNQLWAGLGYYSRGRRLQEGARKVVEELGGHMPRTAETLQQLLPGVGRYTAGAIASIAFGQATGVVDGNVARVLCRVRAIGADPSSTLVSQQLWGLAQQLVDPARPGDFNQAAMELGATVCTPQRPLCSQCPVESLCRARQRVEQEQLLASGSLSGSPDVEECAPNTGQCHLCLPPSEPWDQTLGVVNFPRKASRKPPREESSATCVLEQPGALGAQILLVQRPNSGLLAGLWEFPSVTWEPSEQLQRKALLQELQRWAKPLPATHLRHLGEVVHTFSHIKLTYQVYGLALEGQTPVTTVPPGARWLTQEEFHTAAVSTAMKKVFRVYQGQQPGTCMGSKRSQVSSPCSRKKPRMGQQVLDNFFRSHISTDAHSLNSAAQ [G401K] | -0.582
MRKPRAAVGSGHRKQAASQEGRQKHAKNNSQAKPSACDGLARQPEEVVLQASVSSYHLFRDVAEVTAFRGSLLSWYDQEKRDLPWRRRAEDEMDLDRRAYAVWVSEVMLQQTQVATVINYYTGWMQKWPTLQDLASASLEEVNQLWAGLGYYSRGRRLQEGARKVVEELGGHMPRTAETLQQLLPGVGRYTAGAIASIAFGQATGVVDGNVARVLCRVRAIGADPSSTLVSQQLWGLAQQLVDPARPGDFNQAAMELGATVCTPQRPLCSQCPVESLCRARQRVEQEQLLASGSLSGSPDVEECAPNTGQCHLCLPPSEPWDQTLGVVNFPRKASRKPPREESSATCVLEQPGALGAQILLVQRPNSGLLAGLWEFPSVTWEPSEQLQRKALLQELQRWAMPLPATHLRHLGEVVHTFSHIKLTYQVYGLALEGQTPVTTVPPGARWLTQEEFHTAAVSTAMKKVFRVYQGQQPGTCMGSKRSQVSSPCSRKKPRMGQQVLDNFFRSHISTDAHSLNSAAQ [G401M] | -0.302
